Measured values as given in article PMC5291321.

Molecular target: full-length Cbln1 (Cbln1FL) (human) (UniProt P23435)
Assay: ITC

full-length Cbln1 (Cbln1FL) (human), sequence (P23435 22-193): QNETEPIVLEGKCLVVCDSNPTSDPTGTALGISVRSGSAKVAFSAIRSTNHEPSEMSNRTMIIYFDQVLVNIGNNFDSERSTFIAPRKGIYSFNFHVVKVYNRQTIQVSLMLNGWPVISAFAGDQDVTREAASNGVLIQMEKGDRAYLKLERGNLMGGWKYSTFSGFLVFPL

Kd: 43.5 nM
stoichiometry N (β-NRX1(+4) per Cbln1 hexamer): 1
Substance: β-neurexin-1 with spliced sequence #4 (β-NRX1(+4)) (domain or fragment)
